Numbering of substitutions follows the chain as printed. Numbers in names are those of the source. Where “and” joins values, the source holds several entries; their conditions need not be identical. Equal values may be shown once. Some results are limits rather than exact numbers.

Data on 9 molecules can be found in article PMC2812701, “RelB and RelE of Escherichia coli Form a Tight Complex That Represses Transcription via the Ribbon–Helix–Helix Motif in RelB” (Journal of Molecular Biology, 2009).

Series [1] concerns the target RelB-Cys (E. coli) (UniProt P0C079). The series is described as follows: SPR; Biacore 3000, CM5 chip; about 40 RU RelB-Cys immobilised by ligand thiol coupling; His6-RelE injected at 12.5-100 nM, 60 ul/min; HBS-EP (10 mM Hepes, 150 mM NaCl, 0.005% Tween 20, 3 mM EDTA, pH 7.4); 1:1 Langmuir fit; apparent Kd (koff/kon).
The target of a further series is T1, HMK-RelB (E. coli) (UniProt P0C079).
T1 sequence (chain, 32P label on the N-terminal HMK-tag (RRASV)): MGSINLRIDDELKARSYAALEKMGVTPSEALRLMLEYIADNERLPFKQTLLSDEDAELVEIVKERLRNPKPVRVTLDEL

Series [2] has as its target RelB-Cys (E. coli) (UniProt P0C079). The series is described as follows: SPR; Biacore 3000, CM5 chip; RelB-Cys immobilised by ligand thiol coupling; Lon-His6 injected at 200 nM with or without MgCl2 (8 mM) and ATP (2 mM), and at 12.5-100 nM (monomer) for kinetics; 60 ul/min; HBS-EP pH 7.4; apparent Kd.
For series [3], the system named is RelB S28L;His6-RelE (Escherichia coli;Escherichia coli). The series is described as follows: EMSA. The settings on record: EMSA and footprint binding buffer as in an earlier paper (not given); footprint binding volume 35 ul, radical cleavage 37 C 1 min; native PAGE for EMSA. On the technique in general: In EMSA bound probe runs differently from free probe, usually more slowly.

Series [4] concerns RelB R7A;His6-RelE (Escherichia coli;Escherichia coli). The series is described as follows: EMSA. The settings on record: EMSA and footprint binding buffer as in an earlier paper (not given); footprint binding volume 35 ul, radical cleavage 37 C 1 min; native PAGE for EMSA.
Series [5] relates to RelB K13A;His6-RelE (Escherichia coli;Escherichia coli). The series is described as follows: EMSA. The settings on record: EMSA and footprint binding buffer as in an earlier paper (not given); footprint binding volume 35 ul, radical cleavage 37 C 1 min; native PAGE for EMSA.
Series [6] concerns the molecule itself. The series is described as follows: cross-linking; chemical cross-linking of WT RelB and the mutated variants with BS3 [bis(sulfosuccinimidyl) suberate] (Fig. S1).
For series [7], the target named is T2, His6-RelE (E. coli, UniProt P0C077 1-95).
T2 construct: toxin RelE (mRNA interferase) of the relBE locus, Escherichia coli, wild type; also called co-repressor RelE; mRNA interferase RelE; source: also in cells, co-expressed with RelB; not shown: His6, N-terminal, kept
T2 sequence (looked up): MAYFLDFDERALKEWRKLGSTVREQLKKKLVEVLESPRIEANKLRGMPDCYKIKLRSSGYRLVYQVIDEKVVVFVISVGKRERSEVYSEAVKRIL
The series is described as follows: other fluorescence titration; tryptophan fluorescence of His6-RelE (0.35 uM) titrated with RelB; 25 °C; phosphate-buffered saline pH 7.4; excitation 295 nm, emission about 330 nm. The settings on record: both partners purified.

The target of series [8] is T2, His6-RelE. The series is described as follows: amino acid analysis of the co-purified complex; purified RelB·RelE complex preformed in vivo (Table S2). The settings on record: partners not purified.

As for “His6-RelE (from UniProt P0C077 1-95) (natural protein)”, in the series with RelB-Cys (E. coli) [1], the Kd was 0.33 nM; the in vitro half-life of the complex stood at 1.17 h; the koff (commonly the first-order rate constant of dissociation) amounted to 0.000166 s⁻¹; the kon – broadly, the second-order rate constant of association – amounted to 501000 M⁻¹ s⁻¹.
Take “Lon-His6 (from UniProt P0A9M0 1-784) (enzyme)”: the in vitro degradation of 32P-labelled HMK-RelB (0.13 uM) by Lon (0.6 uM) at 37 °C, ATP- and Mg2+-dependent, time course up to 120 min; in vitro half-life of HMK-RelB with HMK-RelB (E. coli) is above 1 h. Further, in the series with RelB-Cys (E. coli) [2], the Kd was below 2 nM and the koff stood at 0.000234 s⁻¹.
Consider relO166 (Cy5), for which the K half in series [3], in series [4] and in [5] was above 1250 nM in each case.

B1: RelB (wild type) (natural protein, E. coli, UniProt P0C079 1-79, looked up)
chain: T1 sequence (chain, 32P label on the N-terminal HMK-tag (RRASV))
notes: antitoxin RelB of the relBE locus, Escherichia coli, wild type; also called WT RelB; antitoxin RelB; source: also in cells, co-expressed with His6-RelE
Take B1: the stoichiometry N – broadly, the number of molecules, sites or subunits per partner or assembly – is 2 and 4 in series [6]; around 2 RelB/RelE with His6-RelE [7]; 2 RelB/RelE with His6-RelE [8].

B2: RelB^I8A (natural protein, E. coli, UniProt P0C079 1-79, looked up)
chain: T1 sequence (chain, 32P label on the N-terminal HMK-tag (RRASV)) with I8A
notes: antitoxin RelB, Escherichia coli, with I8A; also called RelB RHH variant I8A; source: also in cells, co-expressed with His6-RelE
Regarding B2, in series [6], the “stoichiometry N” value is 2 and 4.

B3: RelB^K13A (natural protein, E. coli, UniProt P0C079 1-79, looked up)
chain: T1 sequence (chain, 32P label on the N-terminal HMK-tag (RRASV)) with K13A
notes: antitoxin RelB, Escherichia coli, with K13A; also called RelB RHH variant K13A; source: also in cells, co-expressed with His6-RelE
On to B3, for which the binding result in [6] is recorded as “binds”.

B4: RelB^S28R (natural protein, E. coli, UniProt P0C079 1-79, looked up)
chain: T1 sequence (chain, 32P label on the N-terminal HMK-tag (RRASV)) with S28R
notes: antitoxin RelB, Escherichia coli, with S28R; also called RelB RHH variant S28R; source: also in cells, co-expressed with His6-RelE
With B4, in series [6], the “stoichiometry N” value is 2 and 4.

B5: RelB^R7A (natural protein, E. coli, UniProt P0C079 1-79, looked up)
chain: T1 sequence (chain, 32P label on the N-terminal HMK-tag (RRASV)) with R7A
notes: antitoxin RelB, Escherichia coli, with R7A; also called RelB RHH variant R7A; source: also in cells, co-expressed with His6-RelE
With B5, the binding result in [6] is reported as “binds”.

B6: RelB^S28L (natural protein, E. coli, UniProt P0C079 1-79, looked up)
chain: T1 sequence (chain, 32P label on the N-terminal HMK-tag (RRASV)) with S28L
notes: antitoxin RelB, Escherichia coli, with S28L; also called RelB RHH variant S28L; source: also in cells, co-expressed with His6-RelE
In the case of B6, in series [6], the “stoichiometry N” value is 2 and 4.
